Assay results from patent publication US20260055162A1.
One block for each substance: values may come before it.

How the values were obtained:
Assay in all cases: cell-based or functional assay
[1] = biological target: AA-SR-121 (SR-121), IL10RA ECD-CD28 TM-CD3z ICD
[2] = biological target: AA-SR-106 (SR-106), IL10RA ECD-IL10RA TM-CD3z ICD
[3] = biological target: AA-SR-122 (SR-122), IL10RB ECD-CD28 TM-CD3z ICD
[4] = biological target: AA-SR-107 (SR-107), IL10RB ECD-IL10RB TM-CD3z ICD
[5] = biological target: AA-SR-111 (SR-111), PD1 ECD-PD1 TM-CD3z ICD
[6] = biological target: AA-SR-126 (SR-126), PD1 ECD-CD28 TM-CD3z ICD
[7] = biological target: AA-TGFB-007 (TGFB-007), TGF-BR2 ECD-TGFBR2 TM-TGFBR2 truncated ICD (Homo sapiens (Human)) (UniProt P37173)
[8] = biological target: AA-TGFB-021 (TGFB-021), TGF-BR2 ECD-CD28 TM-CD3z ICD
[9] = biological target: AA-SR-113 (SR-113), TIGIT ECD-TIGIT TM-CD3z ICD
[10] = biological target: AA-SR-128 (SR-128), TIGIT ECD-CD28 TM-CD3z ICD
[11] = biological target: AA-SR-124 (SR-124), GP130 ECD-CD28 TM-CD3z ICD
[12] = biological target: AA-SR-109 (SR-109), GP130 ECD-GP130 TM-CD3z ICD
AA-SR-109 (SR-109), GP130 ECD-GP130 TM-CD3z ICD, sequence (chain, as listed by the source limits assumed, form in doubt): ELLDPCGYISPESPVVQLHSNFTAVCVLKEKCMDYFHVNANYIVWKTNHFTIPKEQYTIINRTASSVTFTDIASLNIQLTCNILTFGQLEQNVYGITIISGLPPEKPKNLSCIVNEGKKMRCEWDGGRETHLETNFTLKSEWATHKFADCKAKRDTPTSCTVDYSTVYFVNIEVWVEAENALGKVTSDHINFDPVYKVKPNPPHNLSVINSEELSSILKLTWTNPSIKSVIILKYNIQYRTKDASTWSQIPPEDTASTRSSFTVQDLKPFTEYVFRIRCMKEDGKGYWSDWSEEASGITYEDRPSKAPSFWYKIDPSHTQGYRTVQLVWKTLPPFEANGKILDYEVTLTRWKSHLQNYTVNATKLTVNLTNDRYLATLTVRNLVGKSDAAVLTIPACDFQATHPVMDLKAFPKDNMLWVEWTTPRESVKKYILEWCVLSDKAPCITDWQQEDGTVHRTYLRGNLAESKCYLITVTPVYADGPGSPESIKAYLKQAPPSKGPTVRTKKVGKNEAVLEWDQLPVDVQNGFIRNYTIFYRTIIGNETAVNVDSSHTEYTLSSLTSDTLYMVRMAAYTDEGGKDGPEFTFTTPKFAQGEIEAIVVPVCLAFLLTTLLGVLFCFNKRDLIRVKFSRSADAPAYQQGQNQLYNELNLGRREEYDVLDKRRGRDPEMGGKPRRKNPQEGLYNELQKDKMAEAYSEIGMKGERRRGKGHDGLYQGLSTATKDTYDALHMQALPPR

AA-TGFB-021 (TGFB-021), TGF-BR2 ECD-CD28 TM-CD3z ICD, sequence (chain, as listed by the source limits assumed, form in doubt): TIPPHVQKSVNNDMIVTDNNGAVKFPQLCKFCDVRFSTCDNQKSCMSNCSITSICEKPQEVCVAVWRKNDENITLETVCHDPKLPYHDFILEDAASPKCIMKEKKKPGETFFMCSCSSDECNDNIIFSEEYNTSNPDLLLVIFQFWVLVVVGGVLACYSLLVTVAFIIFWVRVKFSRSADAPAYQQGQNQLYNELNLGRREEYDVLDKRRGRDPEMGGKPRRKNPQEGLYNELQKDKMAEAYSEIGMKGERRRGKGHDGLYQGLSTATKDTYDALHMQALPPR
AA-SR-107 (SR-107), IL10RB ECD-IL10RB TM-CD3z ICD, sequence (chain, as listed by the source limits assumed, form in doubt): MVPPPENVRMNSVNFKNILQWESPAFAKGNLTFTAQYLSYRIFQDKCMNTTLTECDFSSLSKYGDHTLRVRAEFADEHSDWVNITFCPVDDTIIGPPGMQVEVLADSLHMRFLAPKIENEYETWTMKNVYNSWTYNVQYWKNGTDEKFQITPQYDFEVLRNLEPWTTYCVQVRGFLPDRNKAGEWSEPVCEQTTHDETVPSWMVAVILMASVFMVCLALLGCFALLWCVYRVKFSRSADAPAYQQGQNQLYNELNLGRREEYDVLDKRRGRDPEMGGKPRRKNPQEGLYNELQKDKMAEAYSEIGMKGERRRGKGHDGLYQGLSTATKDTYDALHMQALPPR
AA-SR-113 (SR-113), TIGIT ECD-TIGIT TM-CD3z ICD, sequence (chain, as listed by the source limits assumed, form in doubt): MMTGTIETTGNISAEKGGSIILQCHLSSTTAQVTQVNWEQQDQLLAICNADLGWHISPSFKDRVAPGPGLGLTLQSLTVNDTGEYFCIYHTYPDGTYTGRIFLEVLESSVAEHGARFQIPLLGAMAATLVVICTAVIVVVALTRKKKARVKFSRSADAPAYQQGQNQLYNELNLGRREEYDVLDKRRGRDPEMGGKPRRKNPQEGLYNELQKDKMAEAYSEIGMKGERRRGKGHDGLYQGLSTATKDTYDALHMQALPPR
AA-SR-111 (SR-111), PD1 ECD-PD1 TM-CD3z ICD, sequence (chain, as listed by the source limits assumed, form in doubt): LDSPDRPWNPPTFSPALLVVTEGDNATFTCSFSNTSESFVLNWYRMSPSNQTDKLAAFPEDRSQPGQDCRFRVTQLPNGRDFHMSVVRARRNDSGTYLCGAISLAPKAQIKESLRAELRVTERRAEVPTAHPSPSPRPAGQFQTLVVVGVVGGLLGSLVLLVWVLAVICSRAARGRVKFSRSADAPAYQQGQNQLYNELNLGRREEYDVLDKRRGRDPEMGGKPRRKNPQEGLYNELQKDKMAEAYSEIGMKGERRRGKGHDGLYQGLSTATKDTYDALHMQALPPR
AA-SR-121 (SR-121), IL10RA ECD-CD28 TM-CD3z ICD, sequence (chain, as listed by the source limits assumed, form in doubt): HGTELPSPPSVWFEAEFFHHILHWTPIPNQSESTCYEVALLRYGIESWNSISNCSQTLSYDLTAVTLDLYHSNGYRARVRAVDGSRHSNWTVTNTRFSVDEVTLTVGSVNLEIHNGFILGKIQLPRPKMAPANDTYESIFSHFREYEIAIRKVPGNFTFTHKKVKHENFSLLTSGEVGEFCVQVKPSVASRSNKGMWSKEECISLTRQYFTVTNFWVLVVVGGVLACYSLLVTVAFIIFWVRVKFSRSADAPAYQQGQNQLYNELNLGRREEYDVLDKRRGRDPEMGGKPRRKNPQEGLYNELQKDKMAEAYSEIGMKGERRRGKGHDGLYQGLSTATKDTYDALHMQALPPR
AA-SR-106 (SR-106), IL10RA ECD-IL10RA TM-CD3z ICD, sequence (chain, as listed by the source limits assumed, form in doubt): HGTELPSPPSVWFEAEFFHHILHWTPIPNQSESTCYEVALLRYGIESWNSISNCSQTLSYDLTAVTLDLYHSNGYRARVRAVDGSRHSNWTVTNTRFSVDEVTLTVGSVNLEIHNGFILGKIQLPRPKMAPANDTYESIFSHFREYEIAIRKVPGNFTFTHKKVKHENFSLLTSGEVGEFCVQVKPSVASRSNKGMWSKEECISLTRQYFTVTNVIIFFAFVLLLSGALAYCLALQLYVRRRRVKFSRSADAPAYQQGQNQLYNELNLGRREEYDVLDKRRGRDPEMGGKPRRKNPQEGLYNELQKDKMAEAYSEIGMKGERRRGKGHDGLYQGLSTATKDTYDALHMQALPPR
AA-SR-124 (SR-124), GP130 ECD-CD28 TM-CD3z ICD, sequence (chain, as listed by the source limits assumed, form in doubt): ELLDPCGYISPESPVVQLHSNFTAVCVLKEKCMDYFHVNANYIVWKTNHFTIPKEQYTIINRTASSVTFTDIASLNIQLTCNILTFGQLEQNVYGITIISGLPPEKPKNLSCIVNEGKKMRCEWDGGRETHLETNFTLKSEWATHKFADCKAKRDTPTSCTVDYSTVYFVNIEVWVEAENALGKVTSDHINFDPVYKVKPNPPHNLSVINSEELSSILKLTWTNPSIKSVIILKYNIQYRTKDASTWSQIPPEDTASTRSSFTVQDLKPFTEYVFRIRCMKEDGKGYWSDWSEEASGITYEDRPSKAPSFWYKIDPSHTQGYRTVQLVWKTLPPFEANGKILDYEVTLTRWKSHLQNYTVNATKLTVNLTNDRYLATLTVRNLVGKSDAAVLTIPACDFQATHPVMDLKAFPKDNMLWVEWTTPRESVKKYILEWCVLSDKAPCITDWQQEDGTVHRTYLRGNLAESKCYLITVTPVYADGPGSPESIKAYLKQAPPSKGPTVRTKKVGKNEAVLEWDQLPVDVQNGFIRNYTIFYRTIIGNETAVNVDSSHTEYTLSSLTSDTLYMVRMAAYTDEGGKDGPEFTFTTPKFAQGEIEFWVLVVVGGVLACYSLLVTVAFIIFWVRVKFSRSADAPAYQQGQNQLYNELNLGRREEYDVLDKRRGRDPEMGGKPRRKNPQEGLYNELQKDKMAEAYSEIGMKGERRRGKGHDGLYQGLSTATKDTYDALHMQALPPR
AA-SR-126 (SR-126), PD1 ECD-CD28 TM-CD3z ICD, sequence (chain, as listed by the source limits assumed, form in doubt): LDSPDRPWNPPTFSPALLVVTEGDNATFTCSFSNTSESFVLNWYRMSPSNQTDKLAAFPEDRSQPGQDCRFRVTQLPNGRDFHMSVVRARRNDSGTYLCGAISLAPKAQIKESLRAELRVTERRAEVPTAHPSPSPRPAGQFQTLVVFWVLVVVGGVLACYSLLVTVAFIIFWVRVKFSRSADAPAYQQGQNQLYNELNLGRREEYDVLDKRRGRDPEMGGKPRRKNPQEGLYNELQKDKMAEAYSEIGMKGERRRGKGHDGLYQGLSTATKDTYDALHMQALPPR
AA-SR-122 (SR-122), IL10RB ECD-CD28 TM-CD3z ICD, sequence (chain, as listed by the source limits assumed, form in doubt): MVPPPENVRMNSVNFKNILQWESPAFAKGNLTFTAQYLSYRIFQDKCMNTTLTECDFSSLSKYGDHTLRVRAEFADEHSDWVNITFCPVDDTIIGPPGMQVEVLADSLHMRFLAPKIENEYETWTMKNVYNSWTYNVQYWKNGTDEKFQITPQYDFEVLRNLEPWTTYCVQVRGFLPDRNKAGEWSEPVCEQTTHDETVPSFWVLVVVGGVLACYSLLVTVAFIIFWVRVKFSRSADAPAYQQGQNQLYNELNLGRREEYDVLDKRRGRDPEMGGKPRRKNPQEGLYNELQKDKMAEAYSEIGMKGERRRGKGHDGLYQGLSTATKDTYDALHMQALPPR
AA-TGFB-007 (TGFB-007), TGF-BR2 ECD-TGFBR2 TM-TGFBR2 truncated ICD (Homo sapiens (Human)), sequence (P37173 23-199, form in doubt): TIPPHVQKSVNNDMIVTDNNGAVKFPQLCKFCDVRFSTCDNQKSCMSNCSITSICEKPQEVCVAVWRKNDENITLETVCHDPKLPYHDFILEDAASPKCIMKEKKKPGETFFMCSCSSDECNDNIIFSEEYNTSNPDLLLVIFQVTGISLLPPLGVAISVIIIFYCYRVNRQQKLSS
AA-SR-128 (SR-128), TIGIT ECD-CD28 TM-CD3z ICD, sequence (chain, as listed by the source limits assumed, form in doubt): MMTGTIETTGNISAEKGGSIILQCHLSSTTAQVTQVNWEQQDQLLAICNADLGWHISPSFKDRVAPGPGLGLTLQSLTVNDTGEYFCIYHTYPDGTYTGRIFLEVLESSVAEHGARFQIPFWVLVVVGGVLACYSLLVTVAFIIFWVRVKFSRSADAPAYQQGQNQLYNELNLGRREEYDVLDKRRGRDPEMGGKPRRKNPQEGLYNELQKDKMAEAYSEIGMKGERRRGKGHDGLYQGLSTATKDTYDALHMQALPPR

Substance: anti-IL-10RA mAb clone 37607 (antibody)
CD69, fold-change of MFI over no stimulation, High (10 ug/mL) [1]: 14.3 fold | CD69, fold-change of MFI over no stimulation, Low (0.4 ug/mL) [1]: 2.2 fold | CD69, fold-change of MFI over no stimulation, Med. (2 ug/mL) [1]: 7.9 fold | GFP, fold-change of MFI over no stimulation, High (10 ug/mL) [1]: 5.4 fold | GFP, fold-change of MFI over no stimulation, Low (0.4 ug/mL) [1]: 1.1 fold | GFP, fold-change of MFI over no stimulation, Med. (2 ug/mL) [1]: 2.9 fold | CD69, fold-change of MFI over no stimulation, High (10 ug/mL) [2]: 56.8 fold | CD69, fold-change of MFI over no stimulation, Low (0.4 ug/mL) [2]: 4.9 fold | CD69, fold-change of MFI over no stimulation, Med. (2 ug/mL) [2]: 29.5 fold | GFP, fold-change of MFI over no stimulation, High (10 ug/mL) [2]: 11.4 fold | GFP, fold-change of MFI over no stimulation, Low (0.4 ug/mL) [2]: 0.8 fold | GFP, fold-change of MFI over no stimulation, Med. (2 ug/mL) [2]: 3.3 fold

Substance: anti-PD-1 mAb clone EH12.2H7 (antibody)
CD69, fold-change of MFI over no stimulation, High (10 ug/mL) [5]: 37.6 fold | CD69, fold-change of MFI over no stimulation, Low (0.4 ug/mL) [5]: 1.2 fold | CD69, fold-change of MFI over no stimulation, Med. (2 ug/mL) [5]: 1.9 fold | GFP, fold-change of MFI over no stimulation, High (10 ug/mL) [5]: 5.8 fold | GFP, fold-change of MFI over no stimulation, Low (0.4 ug/mL) [5]: 1.3 fold | GFP, fold-change of MFI over no stimulation, Med. (2 ug/mL) [5]: 1.4 fold | CD69, fold-change of MFI over no stimulation, High (10 ug/mL) [6]: 27.3 fold | CD69, fold-change of MFI over no stimulation, Low (0.4 ug/mL) [6]: 1.1 fold | CD69, fold-change of MFI over no stimulation, Med. (2 ug/mL) [6]: 1.7 fold | GFP, fold-change of MFI over no stimulation, High (10 ug/mL) [6]: 5.5 fold | GFP, fold-change of MFI over no stimulation, Low (0.4 ug/mL) [6]: 0.9 fold | GFP, fold-change of MFI over no stimulation, Med. (2 ug/mL) [6]: 1.2 fold

Substance: anti-TIGIT mAb clone A15153G (antibody)
CD69, fold-change of MFI over no stimulation, High (10 ug/mL) [9]: 17.1 fold | CD69, fold-change of MFI over no stimulation, Low (0.4 ug/mL) [9]: 7.2 fold | CD69, fold-change of MFI over no stimulation, Med. (2 ug/mL) [9]: 17.1 fold | GFP, fold-change of MFI over no stimulation, High (10 ug/mL) [9]: 4.6 fold | GFP, fold-change of MFI over no stimulation, Low (0.4 ug/mL) [9]: 0.9 fold | GFP, fold-change of MFI over no stimulation, Med. (2 ug/mL) [9]: 2.2 fold | CD69, fold-change of MFI over no stimulation, High (10 ug/mL) [10]: 3.4 fold | CD69, fold-change of MFI over no stimulation, Low (0.4 ug/mL) [10]: 1.2 fold | CD69, fold-change of MFI over no stimulation, Med. (2 ug/mL) [10]: 2.6 fold | GFP, fold-change of MFI over no stimulation, High (10 ug/mL) [10]: 1.7 fold | GFP, fold-change of MFI over no stimulation, Low (0.4 ug/mL) [10]: 0.6 fold | GFP, fold-change of MFI over no stimulation, Med. (2 ug/mL) [10]: 1.2 fold

Substance: anti-gp130 mAb clone 28126 (antibody)
CD69, fold-change of MFI over no stimulation, High (10 ug/mL) [11]: 64.1 fold | CD69, fold-change of MFI over no stimulation, Low (0.4 ug/mL) [11]: 1.8 fold | CD69, fold-change of MFI over no stimulation, Med. (2 ug/mL) [11]: 40.7 fold | GFP, fold-change of MFI over no stimulation, High (10 ug/mL) [11]: 3 fold | GFP, fold-change of MFI over no stimulation, Low (0.4 ug/mL) [11]: 0.5 fold | GFP, fold-change of MFI over no stimulation, Med. (2 ug/mL) [11]: 3.9 fold | CD69, fold-change of MFI over no stimulation, High (10 ug/mL) [12]: 123 fold | CD69, fold-change of MFI over no stimulation, Low (0.4 ug/mL) [12]: 1.1 fold | CD69, fold-change of MFI over no stimulation, Med. (2 ug/mL) [12]: 22 fold | GFP, fold-change of MFI over no stimulation, High (10 ug/mL) [12]: 6.3 fold | GFP, fold-change of MFI over no stimulation, Low (0.4 ug/mL) [12]: 0.5 fold | GFP, fold-change of MFI over no stimulation, Med. (2 ug/mL) [12]: 2.6 fold

Other lines, results leading:

CD69, fold-change of MFI over no stimulation, High (10 ug/mL) [3]: 115 fold | CD69, fold-change of MFI over no stimulation, Low (0.4 ug/mL) [3]: 70.1 fold | CD69, fold-change of MFI over no stimulation, Med. (2 ug/mL) [3]: 118 fold | GFP, fold-change of MFI over no stimulation, High (10 ug/mL) [3]: 8.2 fold | GFP, fold-change of MFI over no stimulation, Low (0.4 ug/mL) [3]: 6.2 fold | GFP, fold-change of MFI over no stimulation, Med. (2 ug/mL) [3]: 12.5 fold | CD69, fold-change of MFI over no stimulation, High (10 ug/mL) [4]: 108 fold | CD69, fold-change of MFI over no stimulation, Low (0.4 ug/mL) [4]: 32.2 fold | CD69, fold-change of MFI over no stimulation, Med. (2 ug/mL) [4]: 86.1 fold | GFP, fold-change of MFI over no stimulation, High (10 ug/mL) [4]: 13.8 fold | GFP, fold-change of MFI over no stimulation, Low (0.4 ug/mL) [4]: 2.9 fold | GFP, fold-change of MFI over no stimulation, Med. (2 ug/mL) [4]: 9.3 fold
Substance: anti-IL-10RB mAb clone 90220 (antibody)

CD69, fold-change of MFI over no stimulation, High (10 ug/mL) [7]: 2 fold | CD69, fold-change of MFI over no stimulation, Low (0.4 ug/mL) [7]: 1.3 fold | CD69, fold-change of MFI over no stimulation, Med. (2 ug/mL) [7]: 1.5 fold | GFP, fold-change of MFI over no stimulation, High (10 ug/mL) [7]: 1 fold | GFP, fold-change of MFI over no stimulation, Low (0.4 ug/mL) [7]: 0.8 fold | GFP, fold-change of MFI over no stimulation, Med. (2 ug/mL) [7]: 0.9 fold | CD69, fold-change of MFI over no stimulation, High (10 ug/mL) [8]: 88.2 fold | CD69, fold-change of MFI over no stimulation, Low (0.4 ug/mL) [8]: 2.2 fold | CD69, fold-change of MFI over no stimulation, Med. (2 ug/mL) [8]: 25.2 fold | GFP, fold-change of MFI over no stimulation, High (10 ug/mL) [8]: 5 fold | GFP, fold-change of MFI over no stimulation, Low (0.4 ug/mL) [8]: 0.9 fold | GFP, fold-change of MFI over no stimulation, Med. (2 ug/mL) [8]: 2.9 fold
Substance: anti-TGF-BR2 mAb clone W17055E (antibody)
